From the supplement of paper PMC10724198
± gives the standard deviation of the averaged measurements.

Tested on: Saccharomyces cerevisiae
Experiment: protein stability index of tFT-peptide fusion (C-terminal peptide) (PSI (0-1 scale)); higher = more stable (slower turnover)
Settings: temperature: 30 C
Description: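 MPS profiling in S. cerevisiae of the yeast C-terminome library: the last 12 aa of each annotated ORF are fused to the C-terminus of a sfGFP-mCherry timer, after a GGGS linker. Cells are FACS-sorted into 8 mCherry/sfGFP bins and deep-sequenced. PSI runs from 0 (unstable) to 1 (stable); wild type and das1Δ backgrounds, two technical replicates each.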

[1] = genetic background: das1 deletion

Sequence	protein stability index [1]	protein stability index (genetic background: wild type)
GPLLDYLSSDED [CWC2 C-terminal 12 aa]	0.7139 ± 0.0039	0.693 ± 0.0055
GQHTKTTGRRRA [RPS18A C-terminal 12 aa]	0.6995 ± 0.0039	0.686 ± 0.032
GQIVIVHYLYDR [YOR218C C-terminal 12 aa]	0.422 ± 0.018	0.445 ± 0.051
GQPPAPFRLRSD [SDS3 C-terminal 12 aa]	0.7109 ± 0.00038	0.709 ± 0.049
GQSLTNTGGGCC [YPT1 C-terminal 12 aa]	0.707 ± 0.011	0.6389 ± 0.00065
GRVHGEEDPTKK [HSP12 C-terminal 12 aa]	0.707 ± 0.024	0.6953 ± 0.0032
GSLLLYLLLKIL [INP54 C-terminal 12 aa]	0.34 ± 0.018	0.119 ± 0.0017
GSNAEEDDDLYS [CDC48 C-terminal 12 aa]	0.7027 ± 0.0045	0.653 ± 0.03
GSPNSLLLNIGR [PHB1 C-terminal 12 aa]	0.698 ± 0.015	0.719 ± 0.016
GTKVDDDKKNKS [SPP2 C-terminal 12 aa]	0.7041 ± 0.0011	0.663 ± 0.03
GVFSKSSAELRF [YDL016C C-terminal 12 aa]	0.715 ± 0.013	0.706 ± 0.023
GVYMELVKVLFG [YLR177W C-terminal 12 aa]	0.607 ± 0.015	0.631 ± 0.013
GWDLRFEEDPSA [TRP5 C-terminal 12 aa]	0.731 ± 0.018	0.6905 ± 0.0042
GYIVGVAALLFL [ANS1 C-terminal 12 aa]	0.428 ± 0.011	0.4532 ± 0.004
GYSPKPISKKEE [ALE1 C-terminal 12 aa]	0.719 ± 0.011	0.648 ± 0.012
GYWEDVFVHLAL [HMLALPHA1 C-terminal 12 aa]	0.7685 ± 0.0061	0.757 ± 0.012
HDELKYPVDMVI [PDR17 C-terminal 12 aa]	0.705 ± 0.022	0.757 ± 0.058

Sequence	protein stability index [1]	protein stability index (genetic background: wild type)
HELKTHLPLNLI [SMT1 C-terminal 12 aa]	0.707 ± 0.018	0.697 ± 0.037
HEVQNAEQEVAQ [MAK16 C-terminal 12 aa]	0.673 ± 0.0074	0.681 ± 0.034
HHLTYLPSVPSL [MMO1 C-terminal 12 aa]	0.715 ± 0.025	0.71 ± 0.053
HHNQIGVPRVEN [GID8 C-terminal 12 aa]	0.679 ± 0.013	0.674 ± 0.011
HKELLAKLEGSD [HNT1 C-terminal 12 aa]	0.688 ± 0.0052	0.703 ± 0.025
HNLHSYEKRLYN [IMD4 C-terminal 12 aa]	0.702 ± 0.025	0.672 ± 0.013
HQKTKTLASLSI [NUP49 C-terminal 12 aa]	0.707 ± 0.014	0.631 ± 0.0093
HQNENMFLTELY [YDL247W-A C-terminal 12 aa]	0.7214 ± 0.0031	0.707 ± 0.067
HTRQGNITQTKY [YKL100W-A C-terminal 12 aa]	0.698 ± 0.017	0.692 ± 0.043
HYEAVRANFEGA [PEX6 C-terminal 12 aa]	0.7023 ± 0.0047	0.724 ± 0.012
IADASSLSWNMK [LEM3 C-terminal 12 aa]	0.697 ± 0.038	0.719 ± 0.011
IAEIASAVDKYS [MHT1 C-terminal 12 aa]	0.7183 ± 0.0018	0.726 ± 0.047
IAIGFGVGITRE [BUD8 C-terminal 12 aa]	0.688 ± 0.035	0.739 ± 0.022
IARPFELKYFGR [FCY21 C-terminal 12 aa]	0.7199 ± 0.006	0.718 ± 0.001
IATIENKFDFEI [YCR099C C-terminal 12 aa]	0.712 ± 0.013	0.694 ± 0.042
IAVNYCMFGRSY [YHR020W C-terminal 12 aa]	0.685 ± 0.022	0.73 ± 0.061
ICFREFFDRVET [YJL077W-B C-terminal 12 aa]	0.714 ± 0.056	0.6732 ± 0.0058
